According to patent publication US20160304615A1 (Regeneron, published 2016):

What was measured:
[1] = molecular target: T1, full-length hEGFRvIII on cells (human, UniProt P00533 298-1210); assay: cell-based or functional assay
EGFRvIII-mFc [2] = molecular target: T2, EGFRvIII-mFc (human); assay: SPR 37C, mAb-capture
T2 construct: Soluble dimeric protein

EGFRvIII-mmh [3] = molecular target: T3, EGFRvIII-mmh (human, UniProt P00533 298-647, limits assumed); assay: SPR 37C, mAb-capture
T3 construct: Soluble monomeric protein; also called hEGFRvIII-mmh; hEGFRvIII.mmh

EGFRvIII-mmh [4] = molecular target: T3, EGFRvIII-mmh; assay: ELISA
Source text: (§1) To further characterize anti-hEGFRvIII mAbs, their binding specificity was examined by ELISA. […] Also, coated was an irrelevant peptide (control peptide) with or without biotin at its N-terminal. […] The plates were then washed and bound anti-EGFRvIII mAbs were detected with anti-human Fc antibodies conjugated with horse-radish peroxidase (HRP). […] Data analysis used a sigmoidal dose-response model within PRISM™ software.

[5] = molecular target: T1, full-length hEGFRvIII on cells; assay: FACS, HEK293/EGFRvIII cells, directly labeled antibody
Protocol: (§2) To determine the specificity of the anti-EGFRvIII mAbs, their binding to HEK293, HEK293 cells expressing EGFRvIII (HEK293/EGFRvIII) and A431 cells, was analyzed by fluorescence activated cell sorting (FACS). HEK293/EGFRvIII cells were prepared by transfecting HEK293 cells with neomycin resistant DNA vectors constitutively expressing full-length hEGFRvIII (SEQ ID NO:147) using LIPOFECTAMINE™ 2000 transfection reagent (INVITROGEN™). At two days post-transfection, cells were placed under G418 selection for approximately two weeks. Populations positively expressing EGFRvIII were isolated via fluorescence activated cell sorting (FACS). The HEK293 cells expressing ˜3×10⁶ copies of EGFRvIII per cell were used in the experiment. […] In another set of experiment, anti-EGFRvIII antibodies were directly conjugated via their lysine residues with the fluorescent dye, ALEXA FLUOR® 488 Dye (INVITROGEN™), thereby eliminating the step using the secondary antibody. […] Controls I, II, III, IV and V are described above. MFI: Mean Fluorescence Intensity.

EGFR-mmh = molecular target: T4, EGFR-mmh (human, UniProt P00533 25-647, limits assumed); assay: ELISA; ELISA, 25 C, EGFR-mmh coated on the plate
T4 construct: Soluble monomeric protein; also called hEGFR-mmh
Source text: as §1

EGFR-mFc = molecular target: T5, EGFR-mFc (human); assay: SPR 37C, receptor-capture; 37 C, receptor-capture format (EGFR-mFc captured)
T5 construct: Soluble dimeric protein
Protocol: (§3) Measurements were conducted on a T100 BIACORE™ instrument. […] In the receptor-capture format, either EGFRvIII-mFc or EGFR-mFc, was captured on the BIACORE™ chip and the respective antibodies flowed over. Kinetic association (kₐ) and dissociation (kd) rate constants were determined by processing and fitting the data to a 1:1 binding model using Scrubber 2.0 curve fitting software. Binding dissociation equilibrium constants (KD) and dissociative half-lives (t_{1/2}) were calculated from the kinetic rate constants as: KD (M)=kd/kₐ; and t₁₁₂ (min)=ln2/(60*kd).

[6] = molecular target: T6, wild-type human EGFR on cells (human, UniProt P00533 25-1210); assay: FACS, A431 cells, directly labeled antibody
T6 construct: Stands for transfected HEK293/hEGFRwt, endogenous EGFR of A431 and of parental HEK293 cells, and human EGFR of hEGFR mice; the cell line is named under assay; also called EGFRwt; hEGFRwt
Protocol: as §2

EGFRvIII-mFc [7] = molecular target: T2, EGFRvIII-mFc; assay: SPR 37C, receptor-capture
Protocol: as §3

EGFRvIII-mmh [8] = molecular target: T3, EGFRvIII-mmh; assay: ELISA; ELISA, 25 C, EGFRvIII-mmh coated on the plate
Source text: as §1

EGFRvIII-mFc [9] = molecular target: T2, EGFRvIII-mFc; assay: SPR 37C, receptor-capture; 37 C, receptor-capture format (EGFRvIII-mFc captured)
Protocol: as §3

B1: H1H1912N (antibody, human IgG1, V domains shown)
VH: EVQLVESGGGLVQPGRSLRLSCAASGFTFDDYAMHWVRQVPGKGLEWVSGISWNSGSIGYADSVKGRFTISRDNAKNSLYLQMNSLRAEDTALYYCAKDIHDYGKDYYYYYGMDVWGQGTTVTVSS
VL: EIALTQSPGTLSLSPGERATLSCRASQSVSSTYLAWYQQKPGQAPRLLIYGASSRATGIPDRFSGSGSGTDFTLTISRLEPEDFAVYYCQQYDSSPITFGQGTRLEIK
notes: Human IgG1 Fc; also called H2M1912N (same variable domains)
Fluorescent Intensity of vesicles 4° C., Mean [1]: 4910
Fluorescent Intensity of vesicles 37° C., Mean [1]: 370000
Kd (EGFRvIII-mFc [2]): 47.7 nM
T½ (EGFRvIII-mFc [2]): 12 min
koff (EGFRvIII-mFc [2]): 0.000971 s⁻¹
kon (EGFRvIII-mFc [2]): 20400 M⁻¹ s⁻¹
Kd (EGFRvIII-mmh [3]): 0.899 µM
T½ (EGFRvIII-mmh [3]): 0.7 min
koff (EGFRvIII-mmh [3]): 0.0164 s⁻¹
kon (EGFRvIII-mmh [3]): 18300 M⁻¹ s⁻¹
EC50 (EGFRvIII-mmh [4]): 0.0118 nM
HEK293/EGFRvIII MFI [5]: 122000 MFI
Ratio (EGFRvIII MFI/parental MFI) [5]: 32.7
EC50 (EGFR-mmh): 0.0405 nM
Kd (EGFR-mFc): 22.9 nM
T½ (EGFR-mFc): 13 min
koff (EGFR-mFc): 0.000914 s⁻¹
kon (EGFR-mFc): 39900 M⁻¹ s⁻¹
A431 MFI [6]: 14300 MFI
Fold Above Background [6]: 2.1 fold
Kd (EGFRvIII-mFc [7]): 5.4 nM
T½ (EGFRvIII-mFc [7]): 22 min
koff (EGFRvIII-mFc [7]): 0.000537 s⁻¹
kon (EGFRvIII-mFc [7]): 99000 M⁻¹ s⁻¹

B2: H1H1863N2(Fuc+) (antibody, human IgG1, V domains shown)
VH: EVQLVESGGGLVQPGGSLRLSCAASGFPFSSYDMHWVRQATGKGLEWVSAIGTAGATYYPGSVKGRFTISRENAKNSLYLQMNSLRAGDTAVYYCARGDYVWGTYRPLFDYWGQGTLVTVSS
VL: DIQLTQSPSFLSASVGDRVTITCWASQGINNYLAWYQQKPGKAPKLLIYAASTLQTGVPSRFSGSGSGTEFTLTISSLQPEDFATYYCQQLNSYPLTFGGGTKVEIK
notes: the numerical identifier ties them; also called H1H863N2; H1H863N2(Fuc+)
T½ (EGFRvIII-mFc [2]): 14 min
T½ (EGFRvIII-mFc [7]): 56 min

B3: H1H1915N (antibody, human IgG1, V domains shown)
VH: QVQLVESGGGVVQPGRSLRLSCAASGFTFSAYAMHWVRQAPGKGLEWVAVIWYDGSNKNYADSVKGRFTVSRDNSKNTLYLEMNSLRAEDTAVYYCARDLMVGVTNYWGQGTLVTVST
VL: DVVMTQSPLSLPVALGQPASISCRSSQSLVYTDGNTYLNWFHQRPGQSPRRLIYKVSNRDSGVPDRFTGSGSGTDFTLKISRVEAEDVGVFYCMQGSHWPPYTFGQGTKLEIK
notes: Human IgG1 Fc; also called H2M1915N (same variable domains)
EC50 (EGFRvIII-mmh [8]): 0.167 nM
Kd (EGFRvIII-mFc [9]): 3.2 nM
T½ (EGFRvIII-mFc [9]): 35 min
koff (EGFRvIII-mFc [9]): 0.000328 s⁻¹
kon (EGFRvIII-mFc [9]): 100000 M⁻¹ s⁻¹
HEK293/EGFRvIII MFI [5]: 73400 MFI
Ratio (EGFRvIII MFI/parental MFI) [5]: 21.2
Kd (EGFR-mFc): 184 nM
T½ (EGFR-mFc): 1.4 min
koff (EGFR-mFc): 0.00801 s⁻¹
kon (EGFR-mFc): 43500 M⁻¹ s⁻¹
A431 MFI [6]: 8440 MFI
Fold Above Background [6]: 1.2 fold

B4: H1H1913N (antibody, human IgG1, V domains shown)
VH: QVQLQQWGAGLLKPSETLSLTCAVYGGSFSGDYWSWIRQSPGKGLEWIGEINHSGSTNYNPSLKSRVTISIDTSKNQFSLKLSSVTAADTAVYYCARGGGDYYYGMDVWGLGTTVTVSS
VL: AIQMTQSPSSLSASVGDRVTITCRASQGIGNDLGWYQQKPGKAPNLLIYATSSLQSGVPSRFSGSGSGTDFTLTISSLQPEDFATYYCLQDYNYPWTFGQGTKVEIK
notes: Human IgG1 Fc; also called H3M1913N (same variable domains)
Kd (EGFRvIII-mFc [2]): 22.6 nM
T½ (EGFRvIII-mFc [2]): 37 min
koff (EGFRvIII-mFc [2]): 0.000316 s⁻¹
kon (EGFRvIII-mFc [2]): 14000 M⁻¹ s⁻¹
Kd (EGFRvIII-mmh [3]): 7.03 µM
T½ (EGFRvIII-mmh [3]): 10 min
koff (EGFRvIII-mmh [3]): 0.00114 s⁻¹
kon (EGFRvIII-mmh [3]): 163 M⁻¹ s⁻¹
EC50 (EGFRvIII-mmh [4]): 2.14 nM
HEK293/EGFRvIII MFI [5]: 239000 MFI
Ratio (EGFRvIII MFI/parental MFI) [5]: 49.8
EC50 (EGFR-mmh): 2.55 nM
Kd (EGFR-mFc): ≤ 0.169 nM
koff (EGFR-mFc): ≤ 1e-06 s⁻¹
kon (EGFR-mFc): 5930 M⁻¹ s⁻¹
Kd (EGFRvIII-mFc [7]): ≤ 0.0159 nM
T½ (EGFRvIII-mFc [7]): 11600 min
koff (EGFRvIII-mFc [7]): ≤ 1e-06 s⁻¹
kon (EGFRvIII-mFc [7]): 63000 M⁻¹ s⁻¹
